This note sets out measurements from paper PMC7092949 (Biochemical and Biophysical Research Communications, 2004).

This assay concerns the target T1, HR-N (SN50) peptide of the SARS-CoV spike protein (SARS-CoV, UniProt P59594 903-952).
T1 peptide: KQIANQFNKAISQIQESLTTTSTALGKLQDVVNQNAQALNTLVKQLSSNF
Kind of assay: circular dichroism.

For LGDISGINASVVNIQKEIDRLNEVAKNLNESLIDLQELGK [HR-C (SC40) peptide of the SARS-CoV spike protein], the binding result was “binds”.
